Data reported in the supplement of paper PMC7125110.
± gives the standard error. Variants at the floor of the assay were thinned out.

B1: glmS ribozyme (parent)
chain: AUAAAAGCGCCAGAACUACAGAAAUGUAGUUGACGAGGAGGAGGUUUAUCGAAUUUUCGGCGGAUGCCUCCAAA

Experiments:
Details in all cases: with glucosamine-6-phosphate
glucosamine-6-phosphate [1] = variants of: B1; assay: self-cleavage kobs at 160 uM GlcN6P; higher = faster cleavage; RNA array
In short: (§1)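 E. coli RNA polymerase transcribed barcoded ribozyme variants in situ on sequenced MiSeq chips, which were tracked via a hybridised Cy3 probe at 37 °C. Tiles were imaged over ~14 h after glucosamine-6-phosphate (40 μM to 10 mM) in HEPES/KCl/Mg(OAc)2 buffer was flowed in. Normalised per-tile medians were fit to one- or two-exponential decays for kobs, and kcat and KM came from weighted Michaelis–Menten fits.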

glucosamine-6-phosphate [2] = variants of: B1; assay: self-cleavage kobs at 640 uM GlcN6P; higher = faster cleavage; RNA array
In short: as §1

glucosamine-6-phosphate [3] = variants of: B1; assay: self-cleavage kobs at 2500 uM GlcN6P; higher = faster cleavage; RNA array
In short: as §1

glucosamine-6-phosphate [4] = variants of: B1; assay: self-cleavage kobs at 40 uM GlcN6P; higher = faster cleavage; RNA array
In short: as §1

glucosamine-6-phosphate [5] = variants of: B1; assay: self-cleavage kobs at 10000 uM GlcN6P; higher = faster cleavage; RNA array
In short: as §1

Variant	self-cleavage kobs at 160 uM GlcN6P (glucosamine-6-phosphate [1]) [s⁻¹]	self-cleavage kobs at 640 uM GlcN6P (glucosamine-6-phosphate [2]) [s⁻¹]	self-cleavage kobs at 2500 uM GlcN6P (glucosamine-6-phosphate [3]) [s⁻¹]	self-cleavage kobs at 40 uM GlcN6P (glucosamine-6-phosphate [4]) [s⁻¹]	self-cleavage kobs at 10000 uM GlcN6P (glucosamine-6-phosphate [5]) [s⁻¹]
C10A A48C U56C	< 1e-05	< 1e-05			
A36G A64U C71U	< 1e-05	< 1e-05	< 1e-05		
A12U A15G G41A	0.000272 ± 4.5e-05	0.00098 ± 0.00018			
A64U C68U	< 1e-05	< 1e-05			
A33U G35A	< 1e-05	< 1e-05	< 1e-05		
G40U A53U C58A G62U				< 1e-05	
U55G C68A	0.000151 ± 6.4e-05	6.91e-05 ± 2.2e-05	9.69e-05 ± 1.8e-05		2.8e-05 ± 1.4e-05
U46A G51C A52G	< 1e-05	< 1e-05	< 1e-05		
U30A U56G	0.000202 ± 6.6e-05	0.00118 ± 0.00024	0.0019 ± 0.00059		
U31A G43C U54G				< 1e-05	< 1e-05
U31C U69A	4.12e-05 ± 1.4e-05		5.91e-05 ± 1.4e-05		
C8G C58A C67A	< 1e-05	< 1e-05	< 1e-05		
G29A G60A	< 1e-05	< 1e-05			
C16U G40C U47G	6.77e-05 ± 2.5e-05	0.000145 ± 2e-05	0.000389 ± 9.2e-05		
G43A G44A G51A C58A				< 1e-05	< 1e-05
A39U A42G G60U	< 1e-05	< 1e-05			
C8A U31G G62A	< 1e-05		< 1e-05		
A15C G32C G38U	< 1e-05				
G35A C58G	< 1e-05		< 1e-05		
U2C G9U C58U	< 1e-05				< 1e-05
A39C G51C U55A	< 1e-05		< 1e-05		
C8U A12C A36G G37A	< 1e-05				
C16G G43A	< 1e-05	< 1e-05			
G35U U45G U46G A64G	< 1e-05	< 1e-05	< 1e-05		
G7U C34A U65G	< 1e-05	< 1e-05			
G37A G38U U55C	< 1e-05	< 1e-05			
C61G G62U	< 1e-05	< 1e-05	< 1e-05		

Variant	self-cleavage kobs at 160 uM GlcN6P (glucosamine-6-phosphate [1]) [s⁻¹]	self-cleavage kobs at 640 uM GlcN6P (glucosamine-6-phosphate [2]) [s⁻¹]	self-cleavage kobs at 2500 uM GlcN6P (glucosamine-6-phosphate [3]) [s⁻¹]	self-cleavage kobs at 40 uM GlcN6P (glucosamine-6-phosphate [4]) [s⁻¹]	self-cleavage kobs at 10000 uM GlcN6P (glucosamine-6-phosphate [5]) [s⁻¹]
U55C C58U	< 1e-05				6.55e-05 ± 8.7e-06
A15C A39G U56G C61G	< 1e-05	< 1e-05	< 1e-05		
G32U G63C	< 1e-05	< 1e-05			< 1e-05
A36U U49G A52C	< 1e-05				
G41U U45C G59U	< 1e-05	< 1e-05	< 1e-05		
U2A A3U G32A			0.0028 ± 0.00085	7.12e-05 ± 1.6e-05	
G13U U47G A52C	< 1e-05		< 1e-05		
G29U A48C G59A	< 1e-05	< 1e-05	< 1e-05		< 1e-05
G9C G40U	< 1e-05	< 1e-05	< 1e-05		< 1e-05
C11A A15C C50G	0.000386 ± 0.00017	0.000113 ± 3.6e-05	7.75e-05 ± 3.1e-05	0.000118 ± 3.3e-05	4.96e-05 ± 1.5e-05
A12C G59A G63C	< 1e-05	< 1e-05			
C10U G38U G41A				< 1e-05	
C8G G35U G66A	< 1e-05	< 1e-05			
A12G A14C G60C	< 1e-05	< 1e-05			
A53U U54G U55A U56A	0.000355 ± 7.8e-05				
G35A C50G U55A C61G				0.000205 ± 5.1e-05	0.000255 ± 4e-05
C34U U56C G66C	< 1e-05		< 1e-05		
C8U C10A C50G	0.000179 ± 2.8e-05		8.56e-05 ± 2.1e-05	9.57e-05 ± 2e-05	9.18e-05 ± 1.7e-05
G35U A42C	< 1e-05	< 1e-05	< 1e-05		
G37U G41A C68U				< 1e-05	
C8U A39U U46C U56C G59U	< 1e-05	< 1e-05	< 1e-05		
G29C C61U C71U	< 1e-05				
G40A C50U	< 1e-05	< 1e-05			< 1e-05
A36G G41C A53U	< 1e-05	< 1e-05			
G29C C34G U55C	< 1e-05				
C61U A64C			< 1e-05	< 1e-05	< 1e-05
